Experimental data as given in PMC3633241 (The Febs Journal, 2013).

Biological target: the molecule itself
Test: SDS/PAGE with western blotting

B1: Pho89–Myc-His6 (full-length recombinant Saccharomyces cerevisiae high-affinity phosphate transporter Pho89 fusion protein) (natural protein, S. cerevisiae, UniProt P38361 1-574, looked up)
chain: MALHQFDYIFAIAMLFAFLDAFNIGANDVANSFASSISSRSLKYWQAMVLAGLCEFLGAVLAGARVSGTIKNNIIDSSIFTNDPAVLMLTMTSALIGSSCWLTFATAIGMPVSTTHSIVGGTIGAGIAAGGANGVVWGWSGVSQIIASWFIAPILAGAIAAIVFSISRFSVLEVKSLERSIKNALLLVGVLVFATFSILTMLIVWKGSPNLHLDDLSETETAVSIVLTGAIASIVYFIFFYPFYRRKVLDQDWTLKLIDIFRGPSFYFKSTDDIPPMPEGHQLTIDYYEGRRNLGTTVSVEDEENKAASNSNDSVKNKEDIQEVDLVRTETEPETKLSTKQYWWSLLKQGPKKWPLLFWLVISHGWTQDVIHAQVNDRDMLSGDLKGMYERSKFYDNRVEYIYSVLQAITAATMSFAHGANDVANATGPLSAVYVIWKTNTIGAKSEVPVWVLAYGGVALVIGCWTYGYNIIKNLGNKMILQSPSRGFSIELAVAITTVMATQLGIPTSTTQIAVGGIVAVGLCNKDLKSVNWRMVAWCYSGWFLTLPIAGLIAGIINGIILNAPRFGVEYQMT
  binding result: binds
